Measured values: the nanobody polyreactivity screen of Harvey et al. (2022)

Assay: yeast display, Sf9 membrane polyspecificity reagent, FACS + sequencing; frameworks hold sequencing errors
How it was run: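 In a synthetic yeast display library (Saccharomyces cerevisiae BJ5465), nanobody expression was induced with galactose for 36–48 hours. FACS gates were set low and high (top ~1%) using anti-HA fluorescence for expression and streptavidin fluorescence for binding of the Sf9 membrane reagent. Each polyreactivity label is drawn from the gate of origin.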

| Sequence | polyreactivity (PSR sort gate) |
| --- | --- |
| QVQLVESGGGLVQAGGSLRLSCAASGRIFHYYAMGWYRQAPGKERELVAAINSAGSTKYADSVKGRFTISRDNAKNTVYLQMNSLKPEDTAVYYCAAERGSRDGGYDYWGQGTQVTVSS | low polyreactivity |
| QVQLVESGGGLVQAGGSLRISCAASGSTFLYYAMGWYRQAPGKERELVAAISWDGGNTYYADSVKGRFTISRDNAKNTVYLQMNSLKPEDTAVYYFAAKHYGSYLYWFGSDYWGQGTQVTVSS | high polyreactivity |
| QVQLVESGGGLVQAGGSLRLSCAASGRTFRAYSMGWYRQAPGKERELVAASSRSGGRTYYADSVKGRFTISRDNAKITVFFQINSLKPEDTAVYYCAAETKYNTHDYYYWGQATQVTVSS | high polyreactivity |
| QVQLVESGGGLVQAGGSLRLSCAASGSTFVTNAMVWYRQAPGKEREFVAAIRWSAGNTYYADSVKGRFTISRDNAKNTVFLQMNSLKPEDTAVYYCAADIYEQRSTYYAEYYSWGQGTQVTVSS | low polyreactivity |
| QVQLVESGGVLVQAGGSLRLSCAASGITLPVYGMGWYRQAPGKERELVAVIDIVGITNYADSVKGRFTISRDNAKNTVYLQMNSLNPEDTAVYYCAKRYVYIADGGEYYYWGQGTQVTVSS | low polyreactivity |
| QVQLVESGGGLVQAGGSLRLSCAASGIIFRNYAMGWYRPAPGKEREFVASITKRGGSTYYADSVKGRFTISRDNAKNTVYLQINSLKPEDTAVYYCNTQWYRGRTEYGYWGQGTQVTVSS | high polyreactivity |
| QVQLVESGGGLVQAGGSLRLSCAASGSIFRNYAMGWYRQAPGKERELVAAISYRGGSTYYADSVKGRFTISRDNAKNTVYLQMNSLKPEDTAVYYCAARTRKAYYYWGQGTQVTVSS | high polyreactivity |
| QVQLVESGGGLVQAGGSLRLSCSASGSIFGIYTMGWYRQAPGKERELVAAINSGGSTNYADSVKGRFTISRDNAKNTVYLQMNSLKPEDTAVYYCAAGGSSSWAFNYWGQGTQVTVSS | low polyreactivity |
| QVQLEESGGGLVQAGGSLRLSCAASGSTLTRNAMGWYRQAPGKERELVAAITSGGRTKYADSVKGRFTISRDNAKNTVYLQMNSLKPEDTAVYYCAKGGPPGQRGYDYWGQGTQVTVSS | high polyreactivity |
| QVQLVESGGGLVQAGGSLRLSCAASGSTFDIYAMGWYRPAPGKERELVAVISGGDGSTYYADSVKGRFTISRDNAKNTVYLQMNSLKPEDTAVYYCAADYISPGYWDGEYDCWGQGTQVTVSS | low polyreactivity |
| QVQLVESGGGLVQAGGSLRLSCAASGITFRYYVMGWYRQAPGKERELVAAISWSGGSTYYADSVKGRFTISRDNAKNTVYLQMNCLKPEDTAVYYCAAYKRRSNGRYWTYDYWGQGTQVTVSS | high polyreactivity |
| QVQLVESGGGLVQAGGSLRLSCAASGRTFRNNAMGLCRQAPGKEREFVAVISNTGGSTYYADSVKGRFTISRDNAKNTVYLQMNSLKPEDTAVYYCAVRPRYSQYYYWGQGTQVTVSS | high polyreactivity |
| QVQLVDSGGGLVQAGGSLRFSCAASGRTSNVYAMGWFRQAPGKERELVAAISARDGTTYNADSVKGRFTISRDNAKNTVYLQMNSLKPEDTAVYYCAAAVLSYADYYYDYEYWGQGTQVTVSS | high polyreactivity |
| QVQLVESGGGLVQAGGSLRLIFAASGRIFRPNAMGWYRQAPGKEREFVAAITSSSGTTYYADSVKGRFTISRDNAKNTVYLQMNSLKPEDSAVYYCAAKYTSRSYKYDYWGQGTQVTVSS | high polyreactivity |
| QVQLVESGGGLVQAGGSLRLSCAASGRTFGSNAMGWYRQAPGKERELVAAITSSADSTYYADSVKGRFTISRDNAKNTVYLQMNSLKPEDTAVYYCATDQGGYYENDYWGQGTQVTVSS | low polyreactivity |
| QVQLVESGGGLVQAGGSLRISCAASGRTFECYAMGWSRQAPGKERELVAAISSGGSTYYADSVKGRFTISRDNAKNTVYLQMNSLKPEDTAVYYCNVLSQQRTARYDYWGQGTQVTVSS | low polyreactivity |

| Sequence | polyreactivity (PSR sort gate) |
| --- | --- |
| QVQLVESGGGLVQAGGSLRLSCAASGSIFYHYAMGWYRQAPGKERELVAAISQSGGGTYYADSVKGRFTISRDNAKNTVYLQMNSLKPEDTAVYYCNRLSKQKQEFDYWGQGTQVTVSS | high polyreactivity |
| QDQLVESGGGLVQAGGSLRLSCAASGFTFAANAMGWSRQAPGKERELVAAISSDSTYADSVKGRFTISRDNAKNTVYLQLNSLKPEDTAVYYCAKDRYIVNSPGLDYWGQGTQVTVSS | low polyreactivity |
| QVQLVDSGGGLVQAGGSLRLSCAASGSSFYISAMGCYRQAPGKERELVAAITNAGSTKYADSVKGRFTISRDNAKNTVYLQMNSLKPEDTAVYYCAAVTFSYDGYDYWGQGTQVTVSS | low polyreactivity |
| QVQLVESGGGLVHAGGSLRLSCAAYGSIFNYYAMGWYRQAPGKERVFVADISGSGSSTYYADSVKGRFTISRDNAKNTFYLQKNSLKPEDTAVYYCNAEYYWGVGYYPYSDYGYWGQGTQVTVSS | low polyreactivity |
| QVQLVESGVGLVQAGGSLRLSCAAAGYIFFFYAMGWYRQAPGKERELVASITYRGGSTYYADSVKGRFTISRDNAKNTVYLHMNSLKPEDTAVYYCNVDGGGPLGPQGFPFDYWGQGTQVTVSS | low polyreactivity |
| QVQLVESGGGLVQAGGSLRLSCAASGSTFRYKTMGWYRQAPGKERELVAAISSRGTNTYYADSVKGRFTISRDNAKNTVYLQMNSLKPDDPAVYYCDTGYYVRMDWGQGTQVTVSS | high polyreactivity |
| QVQLVESGGGLVQAGGSLRLSCAASGSTFHLYAMGWSRQAPGKERELVAVITSGDSTSYADSVKGRFTISRDNAKNTVYLQMNSLKPEDTAVYYCAADSYSGYNYWGQGTQVTVSS | low polyreactivity |
| QVQLVESGGGLVQAGGSLRLSCAASGRTFYIYAMGWYRQAPGKERELVAAITYGGGRTFYADSVKGRFTISRDNAKNTVYLQMNSLKPEDTAVYYCAASVRGKRSTYDYWGQGTQVTVSS | high polyreactivity |
| QVQLVESGGGLVQSGGSLRLSCAAYGLILTHYSMGRYRQAPGKESELVAAIDYGGGSNTYYADSVKGLFTISRDNAKNTDYLQMNSLKPEDTAVYYCAAYRAGNSYDPRLNYWGQGTQVTVSS | high polyreactivity |
| QVQLVESGGVLVQAGGSLRLSCAASGYINGRYVMGWYRTAPGKETELVAAITSSGGSTYYADSVKGRFTISRDNAKNTVYLQINILSPDDTAVYYCAAPTYGRFLRNDYWGPGTQVTVSS | high polyreactivity |
| QVQLVESGGGLVQAGGSLRLSCAASGRTFSYNAMGWYRQAPGKERELVAGISSRGGSTYYADSVKGRFTISRDNAKNTVYLQMNSLKPEDTAVYYCNALGRGKDSYSGVDYWGQGTQVTVSS | high polyreactivity |
| QVQLVESGGGLVQAGGILRLSCASSGSTFGYNVMGWYRQAPGKERELVAAISSSGGSTYYADSVKGRFTISRDTAKNTVYLQMNSLNPEDTAVYYGAADVGFRWYRYTAGPLEYDYWGQGTQVTVSS | high polyreactivity |
| QVQLVESGGGLVQAGGSLRLSCAASGSIFRYYAMGWYRQAPGKERELVAAITWRGGGTYYADSVKGRFTISRDNAKNTVYLQMNSLKPEDTAVYYCAKARFTRGTWFYYWGQGTQVTVSS | high polyreactivity |
| QVQLVESWGGLVQAGGSLRLSCAASGIIFQNYDMGWYRQAPGKERELVAAITGSGGSTYYADSVKGRFTISRDNAKNIVYLQMNSLKPEDTAVYYCAASSFVVSGYNKYYEYGYWGQGTQVTVSS | low polyreactivity |
| QVQLVESGVGLVQAGGSLRLICGASGFTFDYNSMVWYRQAPGKERELVAAISASGGSTYYADSVKGRFTISRDNAKNTVYLQMKSLKPEDTAVYYCNAGRVTRRDTFDYWGQGTQVTVSS | high polyreactivity |
| QVQLVETGGGLVQAGGSLRLSCAASGFTSLTYAMGWYRQAPGKERELVAAITFSGGSTYYADSVKGRFTISRDNAKNTVYLQMNSLKPEDTAVYYCARDGLWYNAIWEYDYWGLGTQVTVSS | high polyreactivity |
